PMC3923656 (Journal of cellular biochemistry, 2009)

Target: T1, GST-Hoxa1-993 (mouse, UniProt P09022 1-331)
T1 sequence (looked up): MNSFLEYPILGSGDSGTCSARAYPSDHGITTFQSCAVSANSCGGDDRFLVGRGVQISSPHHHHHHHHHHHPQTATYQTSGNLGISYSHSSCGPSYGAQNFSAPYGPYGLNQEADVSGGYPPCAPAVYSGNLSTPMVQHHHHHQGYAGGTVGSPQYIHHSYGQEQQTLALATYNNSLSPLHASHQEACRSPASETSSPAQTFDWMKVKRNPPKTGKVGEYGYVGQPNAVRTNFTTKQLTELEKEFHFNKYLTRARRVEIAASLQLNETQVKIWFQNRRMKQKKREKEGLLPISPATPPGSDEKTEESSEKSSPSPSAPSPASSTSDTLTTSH
Assay: pull-down

- fold bound over GST alone: 8 fold
B1: Hoxa1-399, [35S]-labeled, in vitro translated (natural protein, mouse, UniProt P09022-2 1-133, looked up)
chain: MNSFLEYPILGSGDSGTCSARAYPSDHGITTFQSCAVSANSCGGDDRFLVGRGVQISSPHHHHHHHHHHHPQTATYQTSGNLGISYSHSSCGPSYGAQNFSAPYGPYGLNQEADPPRSLSFPCFRDVFSSADL
modifications: [35S]-cysteine radiolabel
